Test [1] deals with T1, recombinant cynomolgus ApoC3 (cynomolgus monkey, UniProt P18659 21-99, biotinylated in the captured-antigen assays (Tables 6 and 8); sites not stated).
T1 construct: No cleavage site is stated, so none is applied; also called rcyApoC3; bio-rcyApoC3
Put plainly: SPR, Table 9 ('29A6-Nhance as the captured antigen'), analyte 0.78-25 nM, pH 7.4. As to the method:
(§1) For the captured antigen approach, biotinylated native human ApoC3 was captured on a streptavidin coated chip (GE Healthcare #BR100032) at pH 7.4. In accordance with the methods provided by Biacore, 20 μl of 10 μg/ml biotinylated human ApoC3 was injected until the surface density reached approximately 500 RU. SPR methods and data analysis were followed as described in Example 2.1. SPR was also performed using these methods with the 29A06-Nhance antibody as the captured antigen. The 29A06-Nhance antibody comprises the heavy chain amino acid sequence set forth in SEQ ID NO: 38 and the light chain amino acid sequence set forth in SEQ ID NO: 50.
(§2) Similarly to the immobilized antigen approach, most of the clones had high affinity towards the human target and low off-rate values.
(In general: SPR reads the build-up and loss of mass on a sensor chip optically.)

The target in the next test is T2, native human ApoC3 (human, UniProt P02656 21-99, biotinylated in the captured-antigen assays (Tables 6 and 8); sites not stated).
T2 construct: also called nhuApoC3; native huApoC3
Described as above. The protocol: as §1, §2

T2 sequence (P02656 21-99): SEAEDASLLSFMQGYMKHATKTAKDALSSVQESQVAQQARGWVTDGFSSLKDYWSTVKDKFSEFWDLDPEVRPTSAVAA
T1 sequence (P18659 21-99 limits assumed): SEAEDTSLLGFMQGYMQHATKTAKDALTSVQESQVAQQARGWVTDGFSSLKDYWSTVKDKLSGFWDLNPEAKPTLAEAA

B1: 29A06-Nhance antibody (antibody, human IgG1, kappa, V domains shown)
VH: QLQLVESGGGLVQPGGSLRLSCAASGFTFGTYSMRWVRQVPRKALEWVSSISTDGGGTAYRDSVKGRFTISRDNAKNTLYLQMNNLKPEDTAIYYCVIAGYSDWGQGTQVTVSS
VL: DVVLTQTPGSLSVVPGESASISCKASQNLVHSNGKTYLYWLLQKPGQSPQRLIYQVSNRGSEVPDRFTGSGSGTDFTLKISGVKAEDAGVYYCAQGTYWPKTFGQGTKLEIKR
notes: IgG1 heavy chain with the Nhance Fc variant, and a kappa light chain; This is probably a print error; also called mAb 29A6-Nhance; 29A6-Nhance
Turning to B1, the results for the Kd (in test [1]; with native human ApoC3) were 0.675 nM and 0.023 nM, respectively. Moreover, the kon in the test with native human ApoC3 was 770000 M⁻¹ s⁻¹.

As a reminder, the Kd is the equilibrium constant for the complex coming apart. As usually defined, the kon is the second-order rate constant of association. A low value points to slower complex formation.

The record behind these values is patent US20210347865A1 (STATEN BIOTECHNOLOGY B V, published 2021).
